The results in this text go back to patent publication US20220106399A1 (IGM BIOSCIENCES, published 2022).

Experiment [1] concerns the target T1, Recombinant human CD40-Fc (R&D Systems) (human, UniProt P25942 21-193).
T1 construct: also called CD4O-Fc; not shown: Fc part of the bought fusion protein
Description: ELISA, plate coated with 1.6 ng/mL human CD40-Fc, detection with anti-human kappa-HRP; Bmax by one site-specific binding with Hill slope; reference anti-CD40 IgG. (ELISA stands for enzyme-linked immunosorbent assay.)

The target in experiment [2] is T1, Recombinant human CD40-Fc (R&D Systems). Put plainly: ELISA, plate coated with 6.25 ng/mL human CD40-Fc, detection with anti-human kappa-HRP; Bmax by one site-specific binding with Hill slope; reference anti-CD40 IgG.
The target is the same in experiment [3]. Put plainly: ELISA on coated human CD40-Fc (1.6 and 6.25 ng/mL). How it is done:
The binding specificity of anti-CD40 IgM and anti-CD40 IgG were measured in an ELISA assay using two different antigen densities by the following method. […] All subsequent washes used PBS+0.05% Tween and all incubation steps were performed in block buffer (2% BSA in PBS). Plates were washed three times, blocked for one hour, and then washed again. The plates were then incubated for one hour with four-fold dilutions of anti-CD40-IgG and anti-CD40-IgM. After washing, the plates were incubated with a 1:6000 dilution of anti-human kappa-HRP (Southern Biotech #9230-05) in blocking buffer for 1 hour at room temperature. The plates were again washed 5 times, and then incubated with TMB substrate (BD Biosciences #555214) for 20 minutes at room temperature. The reaction was stopped with 1M H₂SO₄ and absorbance at 450 nm was read on a SpectraMax340 plate reader (Molecular Devices) using SoftMax Pro software.
Bmax was then calculated at each coating density in GraphPad Prism software using One site-Specific binding with Hill slope. […] IgM is thus more sensitive in detecting low CD40 levels than IgG.

T1 sequence (P25942 21-193 limits assumed): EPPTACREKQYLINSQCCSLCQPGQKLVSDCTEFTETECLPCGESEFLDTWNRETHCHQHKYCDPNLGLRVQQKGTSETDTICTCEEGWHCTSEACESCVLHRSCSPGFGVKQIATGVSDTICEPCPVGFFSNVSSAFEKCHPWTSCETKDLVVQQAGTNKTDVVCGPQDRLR

B1: anti-CD40 IgM (antibody, V domains shown)
VH: EVQLQQSGPDLVKPGASVKISCKTSGYTFTEYIMHWVKQSHGNSLEWIGGIIPNNGGTSYNQKFKDKATMTVDKSSSTGYMELRSLTSEDSAVYYCTRREVYGRNYYALDYWGQGTLVTVSS
VL: DIQMTQTTSSLSASLGDRVTITCSASQGINNYLNWYQQKPDGTVKLLIYYTSSLHSGVPSRFSGSGSGTDYSLTISNLEPEDIATYYCQQYSNLPYTFGGGTKLEIK
In the case of B1, the “fold better binding than anti-CD40 IgG (ratio of Bmax)” value is roughly 5.5 fold in experiment [1] and roughly 2.3 fold in experiment [2].

B2: anti-CD40 IgG (antibody, V domains shown)
VH: EVQLQQSGPDLVKPGASVKISCKTSGYTFTEYIMHWVKQSHGNSLEWIGGIIPNNGGTSYNQKFKDKATMTVDKSSSTGYMELRSLTSEDSAVYYCTRREVYGRNYYALDYWGQGTLVTVSS
VL: DIQMTQTTSSLSASLGDRVTITCSASQGINNYLNWYQQKPDGTVKLLIYYTSSLHSGVPSRFSGSGSGTDYSLTISNLEPEDIATYYCQQYSNLPYTFGGGTKLEIK
notes: detection was with anti-human kappa
Turning to B2, in experiment [3], the binding result is reported as “binds”.
